Measurements as given in IntAct's records for PubMed 26258637.

B1: Rab-3A-interacting protein (Homo sapiens), Q96QF0-2 (parent)
chain: MANDPLEGFHEVNLASPTSPDLLGVYESGTQEQTTSPSVIYRPHPSALSSVPIQANALDVSELPTQPVYSSPRRLNCAEISSISFHVTDPAPCSTSGVTAGLTKLTTRKDNYNAEREFLQGATITEACDGSDDIFGLSTDSLSRLRSPSVLEVREKGYERLKEELAKAQRELKLKDEECERLSKVRDQLGQELEELTASLFEEAHKMVREANIKQATAEKQLKEAQGKIDVLQAEVAALKTLVLSSSPTSPTQEPLPGGKTPFKKGHTRNKSTSSAMSGSHQDLSVIQPIVKDCKEADLSLYNEFRLWKDEPTMDRTCPFLDKIYQEDIFPCLTFSKSELASAVLEAVENNTLSIEPVGLQPIRFVKASAVECGGPKKCALTGQSKSCKHRIKLGDSSNYYYISPFCRYRITSVCNFFTYIRYIQQGLVKQQDVDQMFWEVMQLRKEMSLAKLGYFKEEL
B2: Ras-related protein Rab-11A (Homo sapiens), P62491 (parent)
chain: MGTRDDEYDYLFKVVLIGDSGVGKSNLLSRFTRNEFNLESKSTIGVEFATRSIQVDGKTIKAQIWDTAGQERYRAITSAYYRGAVGALLVYDIAKHLTYENVERWLKELRDHADSNIVIMLVGNKSDLRHLRAVPTDEARAFAEKNGLSFIETSALDSTNVEAAFQTILTEIYRIVSQKQMSDRRENDMSPSNNVVPIHVPPTTENKPKVQCCQNI
partner: B1 chain

Variants of: B1
Settings: with rb11a_human RAB11A

Row | effect of a mutation on the interaction | Variant
1 | decreasing interaction strength | T419A;Y423A;L428A

Variants of: B2
Settings: with RAB3IP

Row | effect of a mutation on the interaction | Variant
2 | disrupting interaction strength | S25N
